From PMC6510727 (2019) come the findings set out here.

Assay [1] addresses transducin α (Tα*) (Bos taurus, UniProt P04695). The experiment in a line: PDE activation assay fit (membranes).
The target of assay [2] is T1, PDE catalytic subunit (PDEcat) (Bos taurus, UniProt P11541).
T1 chain 1: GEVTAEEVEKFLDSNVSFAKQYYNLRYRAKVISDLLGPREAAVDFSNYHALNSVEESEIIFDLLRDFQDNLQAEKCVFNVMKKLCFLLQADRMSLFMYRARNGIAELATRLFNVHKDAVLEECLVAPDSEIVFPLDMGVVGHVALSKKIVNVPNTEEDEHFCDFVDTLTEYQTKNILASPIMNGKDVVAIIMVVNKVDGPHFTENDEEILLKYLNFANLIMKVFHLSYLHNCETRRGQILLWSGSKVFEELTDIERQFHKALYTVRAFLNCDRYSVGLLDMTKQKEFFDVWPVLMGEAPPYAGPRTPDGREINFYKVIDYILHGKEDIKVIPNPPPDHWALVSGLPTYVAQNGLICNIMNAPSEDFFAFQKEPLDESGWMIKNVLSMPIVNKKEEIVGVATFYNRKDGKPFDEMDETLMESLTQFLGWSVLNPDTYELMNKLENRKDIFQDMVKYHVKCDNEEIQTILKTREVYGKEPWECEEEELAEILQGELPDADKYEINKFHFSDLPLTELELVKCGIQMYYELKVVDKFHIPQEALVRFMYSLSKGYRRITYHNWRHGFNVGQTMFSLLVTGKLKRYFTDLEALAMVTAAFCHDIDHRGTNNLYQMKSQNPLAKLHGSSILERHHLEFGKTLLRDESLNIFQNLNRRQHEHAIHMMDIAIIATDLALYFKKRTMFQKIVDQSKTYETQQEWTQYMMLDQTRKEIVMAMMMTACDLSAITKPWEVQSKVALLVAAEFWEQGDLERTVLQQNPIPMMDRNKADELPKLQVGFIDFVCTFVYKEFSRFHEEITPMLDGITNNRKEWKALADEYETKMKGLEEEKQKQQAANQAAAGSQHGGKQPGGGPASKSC
T1 chain 2: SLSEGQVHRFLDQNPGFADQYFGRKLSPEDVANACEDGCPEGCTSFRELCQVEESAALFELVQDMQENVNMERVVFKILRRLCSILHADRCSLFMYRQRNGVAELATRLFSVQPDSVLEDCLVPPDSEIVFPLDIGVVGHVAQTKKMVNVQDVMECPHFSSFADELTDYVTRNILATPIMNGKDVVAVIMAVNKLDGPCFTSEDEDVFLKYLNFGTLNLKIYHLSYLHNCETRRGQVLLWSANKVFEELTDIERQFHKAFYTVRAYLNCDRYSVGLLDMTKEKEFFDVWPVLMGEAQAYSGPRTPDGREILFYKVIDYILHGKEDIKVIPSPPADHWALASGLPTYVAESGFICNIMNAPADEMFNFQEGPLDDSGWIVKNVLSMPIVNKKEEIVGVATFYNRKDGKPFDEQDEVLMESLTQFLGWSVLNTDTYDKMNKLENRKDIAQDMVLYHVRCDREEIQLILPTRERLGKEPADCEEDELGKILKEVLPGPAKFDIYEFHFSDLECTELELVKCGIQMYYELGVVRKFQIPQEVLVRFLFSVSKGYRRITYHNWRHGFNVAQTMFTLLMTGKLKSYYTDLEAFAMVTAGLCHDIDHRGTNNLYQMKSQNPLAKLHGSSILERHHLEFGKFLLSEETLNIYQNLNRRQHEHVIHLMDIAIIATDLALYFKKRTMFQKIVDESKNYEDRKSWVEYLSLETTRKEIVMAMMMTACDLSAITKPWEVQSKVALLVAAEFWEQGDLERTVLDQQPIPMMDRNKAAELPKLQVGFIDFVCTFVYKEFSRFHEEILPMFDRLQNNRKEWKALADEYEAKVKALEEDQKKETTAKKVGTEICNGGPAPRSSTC

Assay [3] has as its target transducin α (Tα-S*) (Bos taurus, UniProt P04695). The experiment in a line: PDE activation assay fit (solution).
Assay [4] addresses T1, PDE catalytic subunit (PDEcat). The experiment in a line: PDE activity assay (membranes).

Like-named read-outs stand apart in the source and are kept apart here.

transducin α (Tα*), sequence (P04695 2-350): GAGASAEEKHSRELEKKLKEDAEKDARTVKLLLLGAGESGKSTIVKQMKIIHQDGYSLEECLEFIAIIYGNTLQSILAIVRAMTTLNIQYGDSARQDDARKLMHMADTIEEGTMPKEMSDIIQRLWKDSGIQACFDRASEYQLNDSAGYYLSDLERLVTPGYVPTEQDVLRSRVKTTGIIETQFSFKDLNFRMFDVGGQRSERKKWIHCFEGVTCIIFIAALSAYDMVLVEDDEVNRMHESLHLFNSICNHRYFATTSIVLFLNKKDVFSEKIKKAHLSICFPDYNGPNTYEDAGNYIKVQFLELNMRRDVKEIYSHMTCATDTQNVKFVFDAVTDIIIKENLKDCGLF
transducin α (Tα-S*), sequence (P04695 2-350): as above

B1: PDEγ (protein)
chain: MNLEPPKAEIRSATRVMGGPVTPRKGPPKFKQRQTRQFKSKPPKKGVQGFGDDIPGMEGLGTDITVICPWEAFNHLELHELAQYGII
modifications: activated Tα, membranes
Turning to B1, binding in assay [1] was put at a Kd of 0.0565 nM.

B2: PDEγ (protein)
chain: B1 chain
On to B2, for which, in assay [2], the Kd (usually the free concentration of one partner at which half of the binding sites on the other are occupied at equilibrium, for simple one-to-one binding) came to 0.005 nM.

B3: PDEγ (protein)
chain: B1 chain
modifications: GTPγS-bound Tα
B3 gave a Kd in assay [3] of 4.5 nM.

B4: PDEγ (protein)
chain: B1 chain
modifications: membranes
Molecule B4 returned a Kd in assay [4] of 0.055 nM.
